The term stoichiometry N denotes a count of units in the complex or per binding partner.

The values that follow come from PMC10945814.

The target in the assay is Abx(+)D, TcmI-like aromatase/cyclase of the (+)-anthrabenzoxocinone pathway (Actinomycetes sp. MA7150). The experiment in a line: crystal structure.

In the case of “Abx(+)D, TcmI-like aromatase/cyclase of the (+)-anthrabenzoxocinone pathway (enzyme)”, the stoichiometry N was found to be 2.
